assay: yeast display, Sf9 membrane polyspecificity reagent, FACS + sequencing; frameworks hold sequencing errors
In short: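 Synthetic nanobody libraries on Saccharomyces cerevisiae BJ5465 were galactose-induced for 36–48 hours, stained 1 hour at 4 °C with 10% biotinylated, detergent-solubilized Sf9 membrane reagent and enriched on streptavidin microbeads. FACS then separated cells into low and high (top ~1%) gates by anti-HA (expression) and streptavidin (reagent binding) fluorescence. Genes were colony-PCR amplified, MiSeq 2 × 250 sequenced and CDR-length filtered. A clone's polyreactivity label is that of its gate of origin.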

Row | Sequence | polyreactivity (PSR sort gate)
1 | QVQLVESGGGLVQAGGSLRLSCAASGSIFGFNAMGWYRQAPGIERELVAAINNGGSTNYADSVKGRFTISRENANNTVYLQMNSLKPEDTADYYCAARLNYIRRGYWGQGTQVTVSS | high polyreactivity
2 | QVQRVESGGGLVQAGGSLRLSCAASGIIFGSYAMGGYRQAPGKERELVAAITSIGTRTYYADSVKGRFTISRDNAKNTVYLQMNSLKPEDTAVYYCNAPRFWSRHGLRDYWGQGTQVTVSS | high polyreactivity
3 | QVQLVESGGGLVQAGGSLRLSCAASGRIFGYYAMGWYRQAPGKERELVAGIDWSGGNTYYADSVKGRFTISRDNAKNTVYLQMNSLKPEDTAVYYCNTVGGRDTAWYDYWGQGTQVTVSS | low polyreactivity
4 | QVQLVESGGGLVQAGGSLRLSCAASGRTFYYNTMGWYRQAPGKERELVATITSSGGRTYYADSVKGRFTISRDNAKNTVYLQMNSLKPEDTAVYYCNAALSRAFKHSTGYDYWGQGTQVTVSS | low polyreactivity
5 | QVQLVESGGGLVQAGGSLRVSSAASGRIFSIYAMGWYRQAPGKERELVAAISFRGTSTYADSVKGRFTISRDNAKNTVYLQMNSLKPEDTAVYFCAVSGFDVLWPSLGGELDYWGQGTQVTVSS | low polyreactivity
6 | QVQLVESGGGLDQAGGSLRLSCAASGITFSTYAMGWYRQAPGKEREFVAAISASGGTTYYADSVKGRFTISRDNAKNTVYLQMNSLKPEDTAVYYCAADRFRVYLIYIWAMGYWGQGTQVTVSS | high polyreactivity
7 | QVQLVESGGGLVQAGGSLRLSCAASGSTFVSNAMGWYRPAPGKERELVASISQSGGGTDYADSVKGRFTISRDNAKNTVYLQMNSLKPEDTAVYYCAADRVPVQAPYDYWGQGTQVTVSS | high polyreactivity
8 | QVQLVESGGGLVQAGGSLRLSCAASGSIFGVYAMGWYRQAPGKERELVAAISQSGGRTYYADSVKGRFTISRDNAKNTVYLQMNSLKPEDTAVYYCAAVVFNVYRRYWGQGTQVTVSS | high polyreactivity
9 | QVQLVESGGGLVQAGGSLRLSCAASGSTIYRYAMGWYRQAPGKERELVATISRTGARTNYADSVKGRFTISRDNAKNTVYLQMNSLKPEDTAVYYCAASAPYIYYWGQGTQVTVSS | high polyreactivity
10 | QVQLVESGGGLVQAGGSLRVSCAASGSTFRHYAMGWSRQAPGKEWELVAAISSTGGSTYYADSVKGRFTISRDNAKNTVYLQMNSLKPEDTAVYYCAARRLYWGQGTQVTVSS | high polyreactivity
11 | QVQLVESGGGLVQAGGSLRLSCAASARTFSRSALGWARQAPGKERELVAAISWSGGSTYYADSVKGRFTISRDKAKNSVYLQMNSLNPEDTAVYYCAAYSRWLPAYDYWGQGTQVTVSS | high polyreactivity
12 | QVQLVESGGGLVQAGGSLRLSCAASGSTFVGYAMGWYRQAPGKERELVAAISGRGGSTYYADSVKGRFTISRDNAKNTVYLQMNSLKPEDTAVYYCNARRRKTVPNYIYNYWGQGTQVTVSS | high polyreactivity
13 | QVQIVESGGGLVQAGGSLRLSCAASGGTFLPYAMGSYRQAPGKERELVATITLIGDSTYYADSVKGRFTISRDNAKNTVYLQMNSLKPEDTAVYYCAARPVTSYAYGSWGQGSQVTVSS | low polyreactivity
14 | QVQLVESGGGLVQAGGSLRLSCAASGSTFSQNAMGWYRQAPGKERELVAVISSSGGRTNYADSVKGRFTISRDNAKNTVYLQMNSLKPEDTAVYYCAKRLRVLYYYWGQGTQVTVSS | high polyreactivity
15 | QVQLVESGGGLVLAGGSLRLSCASSGRTFPSYAKGWYRQAPGKERELVAAITRGGSTNYADSVKGRFTISRDNAKNTVYLQMNSLKPEDTAVYYCAAARWRWQLARDDYWGQGTQVTVSS | high polyreactivity
16 | QVQLVESGGGLVQAGGSLRLSCAASGSIFYIYAMGWYRQAPGKERELVASITFSGDITYYADSVKGRFTISRDNAKNTVYLQMNSLKPEDTAVYYCAADYHEQSYAVTYDYWGQGTQVTVSS | low polyreactivity
17 | QVQLVESGGGLVQAGGSLRLSCAASGRIFVPYVMGWYRQAPGKERELVASISDSDTSTYYADSVKGRFTISRDNAKNTVYIQMNSLKPEDSAVYYCNVDYWGQGTQVTVSS | low polyreactivity
18 | QVQLVESGGGLVQAGGSLRLSCAASGFTFSFYAMGWYRQAPGKERELVATISSGGSTTYADSVKGRFTISRDNAKNTVYLQMNSLKPEDTAVYYCAARGKYYRSQDPSGPRRYDYWGQGTQVTVSS | high polyreactivity
19 | QVHLVESGGGLVQAGGSLRLSCAASGSTFLYYAMGWYRQAPGKERELVAAISSSGGRTYYADSVKGRFTISRDNAKNTVYLQMNSLKPEDTAVYYCAADGRRTSKAGYYYWGQGTQVTVSS | high polyreactivity
20 | QVQLVESAAGLVQAGGSLRLRCAASGRIFSDYAMGWYRQAPGKERELVATITSGDSTNYADSVKGRFTISGDNAKNTDYLQMNSLKPEDTAVYYCNADRFADYDYWGQGTQLTVSS | low polyreactivity
21 | QVQLVESGGGLVQAGGSLRLSCAASGFTLLGYAMGWYRQAPGKERELVAAISYSGVSTDYADSVKGRFTISRDNAKNTVYLQMNSLKPEDTAVSYCIAVSTDSFLQDYNYWGQGTQVTVSS | low polyreactivity
22 | QVQLVESGGGLVQAGGSLRLSCSASGRISVFNVMGWYRQAPGKERELVAAITSGGSTIYADSVKGRFTISRDNAKNTVYLQMNSLKPEDTAVYYCAALYQFHGKIWDGDYWGQGTQVTVSS | low polyreactivity

Row | Sequence | polyreactivity (PSR sort gate)
23 | QVQLVESGGGLVQAGGSLRLSCAASGLNFYSNAMGWYRQAPGKERELVARISTGGSTYADSVKGRFTISRDNAKNTVYLQMNSLKPEDTAVYYCAKLPPRGIDDEYWGQGSQVTVSS | low polyreactivity
24 | QGQLVESGGGLVQAGGSLLLSCAASGRIFTGKAMGWSRQAPGKERELGAAIDWSGGSTYYADSVKGRFTISRDNAKNTVYLQMNSLKPEDTAVYYCNATYSNSAVGYLGFDYWGQGTQVTVSS | low polyreactivity
25 | QVQLVESGGGLVQAGGSLRLSCAASGSILDTNAMGWYRQAPGKERELVARIDIDGSTNYADSVKGRFTISRDNAKNTVYLQMNSLKPEDTAVYYCAADAERHAPKFTYGTYDYWGQGTQVTVSS | low polyreactivity
26 | QVQLVESGGGLVQAGGSLRLICAASGRIFYNYVMGCYRQAPGKERDLVAAISVSSGNTYYADSVKGRFTISRDYAKITVYLQMNSLKPEDTAVYYCARLRTVGGYSKYDYWGQGTQVTVSS | low polyreactivity
27 | QVQLVESGGGLVQAGGSLRLSCAASGRIVRYYTMGWYRQAPGKEREFVAAITLSGGRTYYADSVKGRFTISRDNAKNTVYLQMNSLKPEDTAVYYCAKRYVWGDKRYWQGYDYWGQGTQVSVSS | high polyreactivity
28 | QVQLVESGGGLVQAGGSLRLSCAASGRTFRWYTMGWYRQAPGKERELVAAITSRGGSTYADSVKGRFTISRDNAKNTVYLQMNSMKPEDTAVYYCNAARTYQYDYWGQGTQVTVSS | high polyreactivity
29 | QVQLVESGGGLVQAGGSLRLSCAASGLTFRWYAMGWYRQAPGKERELVAAISSGGSTNYADSVKGRFTISRDNAKNTVYLQMNSLKPEDTAVDYCNAKGRPWFKYDYWGQGTQVTVSS | high polyreactivity
30 | QVQLVESGGGLVQAGGSLRLSCAASGRTFRLYAMGWYRQAPGKVRELGAAITRGGRTNYADSVKGRFTISRDNAKNTVYLQMNSLKPEDTALYYCAARYVERHTDYYYWGQGTQVTVSS | low polyreactivity
31 | QVQLVESGGGLDQAGGSLRLSCAASGRIFTAYAMGWYRQAHGKERELVAAISSGDSTYYADSVKGRFTISRDNAKNTVYLQMNSLKPEDTAVYYCATGVYPDFEYDSWGQGTQVTVSS | low polyreactivity
32 | QVQLVESGGGLVQAGGRLRLSCAASGRIFKSYAMGWYRQAPGKERELVATISISGGSTYYADSVKGRFTISRDNAKNTVYLQMNSLKPEDTAVYYCASDRYGLGDYDYWGQGTQVTVSS | low polyreactivity
33 | QVQLVESGGGLVQAGGSLRLSCAASGLTFVQNAMGWYRQAPGKERELVAAISSRGGSTYYADSVKGRFTISRDNAKNTVYLQMNSLKPEETAVYYCNTRSITKYDYWRRGYGYWGQGTQVTVSS | high polyreactivity
34 | QVQLVESGGGLVQAGGSLRLSCAASGSTLRGYAMGWYRQAPGKEMELVAAITRSGGSTYYADSVKGRFTISRDNAKNTVYLQMNSLKPEDTAVYYCNARAFPYYRRFDYWGQGTQVTVSS | high polyreactivity
35 | QVQLVESGGGLVQAGGSLRLSSAASGRTFFRYAMGWYRQAPGKERELVAAITWSGGTTYYADSVKGRFTISRDNAKNTVYLQMNSLKPEDTAVYYCNGRGLWYRRVVTYGYWGQGTQVTVSS | high polyreactivity
36 | QVQLVESGGGLVQAGGSLRLSCAASGFIFVTNAMGWYRQAPGKERELVAAINWSGGRTYYADSVKGRFTISRDNAKNTVYLQMNSLKPEDTAVYYCAADPYARLGEYGYWGQGTQVTVSS | low polyreactivity
37 | QVQLVESGGGLVQAGGSLRLSCAASGSTFVGNSMGWYRKAPGKERELVAAISGSAGRTYYADSVKGRFTISRDNAKNTVYLQMNSLKPEDTAFYYCNKRYRGGVVYSRYDYWGQGTQVTVSS | low polyreactivity
38 | QVQLVESGGGLVQAGGSLRLSCAASGTTFAGNAMGWYRQAPGKEREFVAAITISGGSTYYADSVKGRFTISRDNAKNTVYLQMNRLKPEDTAVYYCAADYAYYVSLPSRFVYAGYDYWGQGTQVTVSS | low polyreactivity
39 | QVQLVESGGGLVQAGGSLRLSCAASGSTFYKNAMGWYRQAPGKERELVAVINASGDSTYYADSVKGRFTISRDNAKNTVYLQMNSLKPEDTAVYYCAADHRGEYDYWGQGTQVTVSS | low polyreactivity
40 | QVQLVESGGGLVQAGGSLRLSCAASGGIFALNDMGWYRQAPGKERELVAAINGAGTYYADSVKGRFTISRDNAKNTVYLQMNSLKPEETAVYYCARRWLHWEYARTWTRVEYDYWGQGTQVTVSS | low polyreactivity
41 | QVQLVESGGGLVQAGGSLRLSCAASGFTLGVYTMGGSRQAPGKVRELVARITSGGRTYSADSVKGRFTISRDNAKNSVYLQMNSLQPEDTAVYYCAKVDGRRTYYTVHRYERDYWGQGTQVTVSS | low polyreactivity
42 | QVQLVESGGGLVQAGGSLRLSCAASGSTFQYYAMGWYRQAPGKERELVAAISYSSGTTYYADSVKGRFTISRDNAKNTVYLQMNSLKPEDTAVYYCARPARYSYPTSTAFDYWGQGTQVTVSS | low polyreactivity
43 | QVQLVESGGGLVQAGGSLRLSCAATGSIFGIYTMGWDRQAPGKERELVAAIRRSGSTNYADSVKGRFTISRDNEKNTVYLQMNSLKPEDSAVYYCAADALSDEYDYWGQGTQVTVSS | low polyreactivity

Reference: the nanobody polyreactivity screen of Harvey et al. (2022)
